Experimental data reported in the supplement of paper PMC11246515.
± gives the standard deviation of the averaged measurements.

Test: total protein half-life in vivo (active degradation + dilution); higher = more stable protein
[1] = E. coli NCM3722 delta-clpP delta-lon delta-hslV, growth: N-lim chemostat, doubling time 6 h
[2] = E. coli NCM3722 delta-clpP, growth: N-lim chemostat, doubling time 6 h
[3] = E. coli NCM3722 delta-lon, growth: N-lim chemostat, doubling time 6 h
[4] = E. coli NCM3722 delta-smpB, growth: N-lim chemostat, doubling time 6 h
[5] = wild type E. coli NCM3722, growth: C-lim chemostat, doubling time 3 h
[6] = wild type E. coli NCM3722, growth: C-lim chemostat, doubling time 6 h
[7] = wild type E. coli NCM3722, growth: C-lim chemostat, doubling time 12 h
[8] = wild type E. coli NCM3722, growth: N-lim chemostat, doubling time 6 h
[9] = wild type E. coli NCM3722, growth: N-lim chemostat, doubling time 12 h
[10] = E. coli NCM3722 delta-hslV, growth: N-lim chemostat, doubling time 6 h
[11] = wild type E. coli NCM3722, growth: P-lim chemostat, doubling time 6 h
[12] = wild type E. coli NCM3722, growth: P-lim chemostat, doubling time 12 h

Row | Sequence | total protein half-life in vivo [1] [h] | total protein half-life in vivo [2] [h] | total protein half-life in vivo [3] [h] | total protein half-life in vivo [4] [h] | total protein half-life in vivo [5] [h] | total protein half-life in vivo [6] [h] | total protein half-life in vivo [7] [h] | total protein half-life in vivo [8] [h] | total protein half-life in vivo [9] [h] | total protein half-life in vivo [10] [h] | total protein half-life in vivo [11] [h] | total protein half-life in vivo [12] [h]
1 | MAHPPRLNDDKPVIWTVSVTRLFELFRDISLEFDHLANITPIQLGFEKAVTYIRKKLANERCDAIIAAGSNGAYLKSRLSVPVILIKPSGYDVLQALAKAGKLTSSIGVVTYQETIPALVAFQKTFNLRLDQRSYITEEDARGQINELKANGTEAVVGAGLITDLAEEAGMTGIFIYSAATVRQAFSDALDMTRMSLRHNTHDATRNALRTRYVLGDMLGQSPQMEQVRQTILLYARSSAAVLIEGETGTGKELAAQAIHREYFARHDARQGKKSHPFVAVNCGAIAESLLEAELFGYEEGAFTGSRRGGRAGLFEIAHGGTLFLDEIGEMPLPLQTRLLRVLEEKEVTRVGGHQPVPVDVRVISATHCNLEEDMQQGRFRRDLFYRLSILRLQLPPLRERVADILPLAESFLKVSLAALSAPFSAALRQGLQASETVLLHYDWPGNIRELRNMMERLALFLSVEPTPDLTPQFMQLLLPELARESAKTPAPRLLTPQQALEKFNGDKTAAANYLGISRTTFWRRLKS | 4.26 ± 0.052 | 2.4 ± 0.6 | 2.71 | 2.277 ± 0.021 | 2.18 ± 0.55 | 4.02 ± 0.54 | 5.89 ± 0.42 | 2.53 ± 0.25 | 4.31 | – | – | –
2 | MRTTIAVVLGAISLTSAFVFADKPDVARSANDEVSTLFFGHDDRVPVNDTTQSPWDAVGQLETASGNLCTATLIAPNLALTAGHCLLTPPKGKADKAVALRFVSNKGLWRYEIHDIEGRVDPTLGKRLKADGDGWIVPPAAAPWDFGLIVLRNPPSGITPLPLFEGDKAALTAALKAAGRKVTQAGYPEDHLDTLYSHQNCEVTGWAQTSVMSHQCDTLPGDSGSPLMLHTDDGWQLIGVQSSAPAAKDRWRADNRAISVTGFRDKLDQLSQK | 5.08 ± 0.47 | 5.58 ± 0.3 | 5.8 ± 0.71 | 4.76 ± 0.16 | 2.07 ± 0.13 | 4.406 ± 0.0069 | 9.64 ± 2.3 | 5.29 ± 0.23 | 10.9 ± 0.45 | 6.26 ± 0.068 | 6.23 ± 0.28 | 11.4 ± 1.1
3 | MQKEQLSALMDGETLDSELLNELAHNPEMQKTWESYHLIRDSMRGDTPEVLHFDISSRVMAAIEEEPVRQPATLIPEAQPAPHQWQKMPFWQKVRPWAAQLTQMGVAACVSLAVIVGVQHYNGQSETSQQPETPVFNTLPMMGKASPVSLGVPSEATANNGQQQQVQEQRRRINAMLQDYELQRRLHSEQLQFEQAQTQQAAVQVPGIQTLGTQSQ [P0AFX7] | – | – | – | – | – | 0.455 ± 0.09 | 0.469 | 0.895 ± 0.046 | 0.953 ± 0.18 | – | 0.801 | 1.03 ± 0.45
4 | MSTPSARTGGSLDAWFKISQRGSTVRQEVVAGLTTFLAMVYSVIVVPGMLGKAGFPPAAVFVATCLVAGLGSIVMGLWANLPLAIGCAISLTAFTAFSLVLGQHISVPVALGAVFLMGVLFTVISATGIRSWILRNLPHGVAHGTGIGIGLFLLLIAANGVGLVIKNPLDGLPVALGDFATFPVIMSLVGLAVIIGLEKLKVPGGILLTIIGISIVGLIFDPNVHFSGVFAMPSLSDENGNSLIGSLDIMGALNPVVLPSVLALVMTAVFDATGTIRAVAGQANLLDKDGQIIDGGKALTTDSMSSVFSGLVGAAPAAVYIESAAGTAAGGKTGLTAITVGVLFLLILFLSPLSYLVPGYATAPALMYVGLLMLSNVAKIDFADFVDAMAGLVTAVFIVLTCNIVTGIMIGFATLVIGRLVSGEWRKLNIGTVVIAVALVTFYAGGWAI [P0AF52] | 6.73 ± 0.3 | 6.71 ± 0.4 | – | – | 3.4 ± 0.27 | 6.122 ± 0.032 | 13.3 ± 3.4 | 6.45 ± 0.33 | 12.2 ± 0.93 | – | 6.39 ± 0.3 | 14.2 ± 1.6
5 | MKPRQRQAAILEYLQKQGKCSVEELAQYFDTTGTTIRKDLVILEHAGTVIRTYGGVVLNKEESDPPIDHKTLINTHKKELIAEAAVSFIHDGDSIILDAGSTVLQMVPLLSRFNNITVMTNSLHIVNALSELDNEQTILMPGGTFRKKSASFHGQLAENAFEHFTFDKLFMGTDGIDLNAGVTTFNEVYTVSKAMCNAAREVILMADSSKFGRKSPNVVCSLESVDKLITDAGIDPAFRQALEEKGIDVIITGESNE | – | 6.55 ± 0.26 | 6.11 ± 1 | 6.36 ± 0.59 | 3.36 ± 0.46 | 6.64 ± 0.39 | 12.6 ± 2.2 | 6.06 ± 0.35 | 13 ± 0.2 | 5.66 ± 0.25 | 5.82 ± 0.56 | 12.5 ± 0.15
6 | MTARYIAIDWGSTNLRAWLYQGDHCLESRQSEAGVTRLNGKSPAAVLAEVTTDWREEKTPVVMAGMVGSNVGWKVAPYLSVPACFSSIGEQLTSVGDNIWIIPGLCVSHDDNHNVMRGEETQLIGARALAPSSLYVMPGTHCKWVQADSQQINDFRTVMTGELHHLLLNHSLIGAGLPPQENSADAFTAGLERGLNTPAILPQLFEVRASHVLGTLPREQVSEFLSGLLIGAEVASMRDYVAHQHAITLVAGTSLTARYQQAFQAMGCDVTAVAGDTAFQAGIRSIAHAVAN | – | – | – | – | 3.12 ± 0.4 | – | – | – | – | – | 4.75 | 7.85
7 | MTTQLEQAWELAKQRFAAVGIDVEEALRQLDRLPVSMHCWQGDDVSGFENPEGSLTGGIQATGNYPGKARNASELRADLEQAMRLIPGPKRLNLHAIYLESDTPVSRDQIKPEHFKNWVEWAKANQLGLDFNPSCFSHPLSADGFTLSHADDSIRQFWIDHCKASRRVSAYFGEQLGTPSVMNIWIPDGMKDITVDRLAPRQRLLAALDEVISEKLNPAHHIDAVESKLFGIGAESYTVGSNEFYMGYATSRQTALCLDAGHFHPTEVISDKISAAMLYVPQLLLHVSRPVRWDSDHVVLLDDETQAIASEIVRHDLFDRVHIGLDFFDASINRIAAWVIGTRNMKKALLRALLEPTAELRKLEAAGDYTARLALLEEQKSLPWQAVWEMYCQRHDTPAGSEWLESVRAYEKEILSRRG | 3.97 ± 0.74 | 2.97 ± 0.12 | 3.14 ± 0.07 | 2.94 ± 0.21 | – | 5.85 ± 1.9 | 9.47 | – | 3.73 | – | 5.31 ± 0.18 | 8.02 ± 5
